According to article PMC6737007:

How the values were obtained:
[1] = target: second voltage-sensing domain (VSD-II) of the human NaV1.4 channel, residues 554-696, with C660S, C661S and C687S (human) (UniProt P35499); assay: NMR titration; 15N-labeled VSD-II titrated with unlabeled Hm-3 in buffer B with DPC/LDAO micelles (11/11 mM), pH 5.5, 45°C, 800 MHz; chemical shifts fitted with two sites on VSD-II and Hm-3 partitioning to micelles (K M = 90 μM)
[2] = target: single A140C mutant of the VSD of KVAP channel; assay: SEC; Superdex 200 in 20-mM Tris-HCl, 150-mM NaCl, pH 5.5, 0.3% DPC, calibrated by Stokes radii; with SDS-PAGE; VSD-KVAP A140C also after 1.5-mM DTT

Work on “gating modifier toxin Hm-3 from the crab spider Heriaeus melloteei (peptide)” yielded a KD (K V), cytoplasmic binding site [1] of 7 µM and a KD (K V), extracellular binding site [1] of 11 µM.
“single A140C mutant of the VSD of KVAP channel (domain or fragment)” was tested, and the stoichiometry N [2] was 2.
